Legend:
mPDL-1 (mouse) = mPDL-1 (mouse) (UniProt Q9EP73); assay: mPD-1/mPD-L1 binding inhibition
mPD-1 (mouse) = mPD-1 (mouse) (UniProt Q02242); assay: mPD-1/mPD-L1 binding inhibition
Sequence of mPD-1 (mouse) (Q02242 25-169): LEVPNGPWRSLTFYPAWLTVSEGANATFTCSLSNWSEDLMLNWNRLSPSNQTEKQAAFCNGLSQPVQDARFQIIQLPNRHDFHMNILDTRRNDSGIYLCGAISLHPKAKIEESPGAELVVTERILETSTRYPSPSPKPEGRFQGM

Sequence of mPDL-1 (mouse) (Q9EP73 19-239): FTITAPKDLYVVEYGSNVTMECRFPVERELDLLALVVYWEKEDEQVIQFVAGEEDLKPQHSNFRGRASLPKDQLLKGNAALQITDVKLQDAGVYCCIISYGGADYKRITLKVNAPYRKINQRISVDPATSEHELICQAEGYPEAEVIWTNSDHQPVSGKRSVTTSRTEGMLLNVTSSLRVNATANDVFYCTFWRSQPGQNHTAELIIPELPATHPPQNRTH

| Substance | IC50 (mPDL-1 (mouse)) | IC50 (mPD-1 (mouse)) |
| --- | --- | --- |
| Clone 10F.9G2 | 0.00109 µM |  |
| Clone RMPI-14 |  | 0.0311 µM |
